Measured values published in patent US20230227838A1, “ENHANCED CELL SURVIVAL AGAINST BIOTIC AND ABIOTIC STRESSES THROUGH SALICYLICK ACID-INDUCED NPR1 CONDENSATES” (priority 2020, published 2023).

Target: sim3-GFP (Arabidopsis thaliana) (UniProt P93002)
Experiment: sim3-GFP IP, LC-MS/MS

Sequence of sim3-GFP (Arabidopsis thaliana) (P93002 other isoform, or with tags, fused parts or gaps): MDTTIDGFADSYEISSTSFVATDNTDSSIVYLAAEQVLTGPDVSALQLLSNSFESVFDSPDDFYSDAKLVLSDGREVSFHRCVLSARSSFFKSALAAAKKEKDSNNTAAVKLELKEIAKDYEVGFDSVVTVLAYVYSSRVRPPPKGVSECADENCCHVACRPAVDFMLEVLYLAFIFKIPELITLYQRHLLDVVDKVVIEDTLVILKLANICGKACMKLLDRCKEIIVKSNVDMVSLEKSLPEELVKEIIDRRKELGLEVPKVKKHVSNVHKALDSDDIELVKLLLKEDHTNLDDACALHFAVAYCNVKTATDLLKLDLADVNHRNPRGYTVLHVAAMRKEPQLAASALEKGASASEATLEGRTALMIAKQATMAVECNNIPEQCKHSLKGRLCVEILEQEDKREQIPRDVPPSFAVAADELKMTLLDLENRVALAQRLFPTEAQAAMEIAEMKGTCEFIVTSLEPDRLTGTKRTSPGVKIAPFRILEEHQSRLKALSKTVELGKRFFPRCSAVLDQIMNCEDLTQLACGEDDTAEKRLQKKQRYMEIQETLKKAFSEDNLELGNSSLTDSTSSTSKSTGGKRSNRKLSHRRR

Binder	Normalized Fold Change: SA vs Mock
UBP14, ubiquitin-specific protease 14 (protein, UniProt Q8L6Y1 1-797, looked up) Ubiquitin carboxyl-terminal hydrolase 14: MELLRSNLSRVQIPEPTHRIYKHECCISFDTPRSEGGLFVDMNSFLAFGKDYVSWNYEKTGNPVYLHIKQTRKSIPEDRPLKKPTLLAIGVDGGFDNNEPEYEESYSIVILPDFVSLPFPSVELPEKVRIAVDTVVNAVGAERKEQVAAWTAEKKLISEHALTLQQIKSGIVIPPSGWKCSKCDKTENLWLNLTDGMILCGRKNWDGTGGNNHAVEHYKETAYPLAVKLGTITADLEAADVYSYPEDDSVLDPLLAEHLAHFGIDFSSMQKTEMTTAERELDQNTNFDWNRIQESGKELVPVFGPGYTGLVNLGNSCYLAATMQIVFSTHSFISRYFSHQSLKMAFEMAPADPTLDLNMQLTKLGHGLLSGKYSMPATQKDATTGDPRQEGIPPRMFKNVIAASHAEFSSMRQQDALDFFLHLVGKVERASNTTPDLDPSRSFKFGIEEKILCPSGKVGYNKREDCILSLNIPLHEATNKDELEAFHKQKAGKGLEENDMRSSDEIVRPRVPLEACLANFASSEPIEDYYSSALKGMTTAIKTTGLTSFPDYLVLHMRKFVMEEGWVPKKLDVYIDVPDVIDISHMRSKGLQPGEELLPDGVPEEVMESAQPVANEEIVAQLVSMGFSQLHCQKAAINTSNAGVEEAMNWLLSHMDDPDIDAPISHQTSDIDQSSVDTLLSFGFAEDVARKALKASGGDIEKATDWVFNNPNASVSDMDVSSSNSAQTPAQSGLPDGGGKYKLFGIVSHMGTSVHCGHYVAHILKEGRWVIFNDDKVGISTDPPKDMGYVYFFQRLD	5.02 fold
CLIP-associated protein (protein, UniProt Q8RWY6 1-1439, looked up) CLIP-associated protein: MEEALEMARAKDTKERMAAVERLHQLLEASRKSLSPAEVTSLVDSCLDLLKDSNFRVSQGALQALASAAVLAGEHLKLHLNALVPAVVERLGDSKQPVRDAARRLLTTLMEVSSPTIIVERAGSYAWMHKSWRVREEFARTVTSAIGLFASTELPLQRVILAPILQMLNDPNQAVREAAILCIEEMYMQGGSQFREELQRHHLPSYMVKDINARLERIEPQLRSTDGRSAHHVVNEVKASSVNPKKSSPRAKAPTRENSLFGGDADITEKPIEPIKVYSEKELIREFEKIAATLVPEKDWSMRISAMRRVEGLVAGGATDYSCFRGLLKQLVGPLSTQLADRRSTIVKQACHLLCLLSKELLGDFEACAETFIPVLFKLVVITVLVIAESADNCIKTMLRNCKAARVLPRIAESAKHDRNAILRARCCEYALLTLEHWPDAPEIQRSVDLYEDLIRCCVADAMSEVRATARMCYRMFAKTWPDRSRRLFSSFDPVIQRLINEEDGGIHRRHASPSVRERHSQPSFSQTSAPSNLPGYGTSAIVAMDRSSNLSSGGSLSSGLLLSQSKDVNKGSERSLESVLQSSKQKVSAIESMLRGLHISDRQNPAALRSSSLDLGVDPPSSRDPPFHAVAPASNSHTSSAAAESTHSINKGSNRNGGLGLSDIITQIQASKDSGRSSYRGNLLSESHPTFSSLTAKRGSERNERSSLEESNDAREVRRFMAGHFDRQQMDTAYRDLTFRESNASHVPNFQRPLLRKNVGGRMSAGRRRSFDDSQLQIGDISNFVDGPASLNEALNDGLNSSSDWCARVAAFNFLQTLLQQGPKGAQEVIQSFEKVMKLFLRHLDDPHHKVAQAALSTLADLIPSCRKPFESYMERVLPHVFSRLIDPKEVVRQPCSSTLEIVSKTYSVDSLLPALLRSLDEQRSPKAKLAVIEFAINSFNRYAGNPEISGNSGILKLWLAKLTPLTRDKNTKLKEASITCIISVYNHYDSAGLLNYILSLSVEEQNSLRRALKQYTPRIEVDLLNYMQSKKEKQRIKSYDPSDAIGTSSEEGYAGASKKNIFLGRYSGGSIDSDSGRKWSSSQEPTMITGGVGQNVSSGTQEKLYQNVRTGISSASDLLNPKDSDYTFASAGQNSISRTSPNGSSENIEILDDLSPPHLEKNGLNLTSVDSLEGRHENEVSRELDLGHYMLTSIKVNTTPESGPSIPQILHMINGSDGSPSSSKKSGLQQLIEASVANEESVWTKYFNQILTVVLEVLDDEDFSIKELALSLISEMLKSQKDAMEDSVEIVIEKLLHVSKDTVPKVSTEAEQCLTTVLSQYDPFRCLSVIVPLLVTEDEKTLVACINCLTKLVGRLSQEELMDQLSSFLPAVFEAFGSQSADVRKTVVFCLVDIYIMLGKAFLPYLEGLNSTQVRLVTIYANRISQARNGAPIDADT	2550 fold
ADF6 (protein, UniProt Q9ZSK2 1-146, looked up) Actin-depolymerizing factor 6: MSFRGLSRPNAISGMGVADESKTTFLELQRKKTHRYVVFKIDESKKEVVVEKTGNPTESYDDFLASLPDNDCRYAVYDFDFVTSENCQKSKIFFFAWSPSTSGIRAKVLYSTSKDQLSRELQGIHYEIQATDPTEVDLEVLRERAN	2.26 fold
atnudt5, NUDT5, nudix hydrolase homolog 5 (protein, UniProt Q9SJC6 1-302, looked up) Nudix hydrolase 5: MGLTKNFAFLVFCCQRYCSMDGEAFEISLLDGEEDRFGGTVVNLMEVESMTIGDFDSKLDVSLKAWKDQGKKGIWIKLPSELSSLVDTAIKKGFTYHHAENEYVMLTFWLPEPPSTLPCNASHRIGIGAFVLNKNGEMLVVQENSGYFKDKNVWKVPTGTIKEGESIWAGAVREVKEETDIDAEFVEVLSFMESHQAVWQRKTDIFFVCELEARTFEIQKQDSEIHAAKWMPVEEYVNQPYHNKEGNEMFKLIANICLKRSREKYTGFVLTTNSAKKSLYCSVDHANLLKETADQASTSLSD	44.1 fold

The next lines start with the values.

Normalized Fold Change: SA vs Mock	Binder
2.47 fold	LON2, lon protease 2 (protein, UniProt O64948 1-888, looked up) Lon protease homolog 2, peroxisomal: MAETVELPSRLAILPFRNKVLLPGAIIRIRCTSHSSVTLVEQELWQKEEKGLIGILPVRDDAEGSSIGTMINPGAGSDSGERSLKFLVGTTDAQKSDAKDQQDLQWHTRGVAARALHLSRGVEKPSGRVTYVVVLEGLSRFNVQELGKRGPYSVARITSLEMTKAELEQVKQDPDFVALSRQFKTTAMELVSVLEQKQKTGGRTKVLLETVPIHKLADIFVASFEMSFEEQLSMLDSVDLKVRLSKATELVDRHLQSIRVAEKITQKVEGQLSKSQKEYLLRQQMRAIKEELGDNDDDEDDVAALERKMQAAGMPSNIWKHAQRELRRLKKMQPQQPGYNSSRVYLELLADLPWDKASEEHELDLKAAKERLDSDHYGLAKVKQRIIEYLAVRKLKPDARGPVLCFVGPPGVGKTSLASSIAAALGRKFVRLSLGGVKDEADIRGHRRTYIGSMPGRLIDGLKRVGVCNPVMLLDEIDKTGSDVRGDPASALLEVLDPEQNKSFNDHYLNVPYDLSKVVFVATANRVQPIPPPLLDRMELIELPGYTQEEKLKIAMRHLIPRVLDQHGLSSEFLKIPEAMVKNIIQRYTREAGVRSLERNLAALARAAAVMVAEHEQSLPLSKDVQKLTSPLLNGRMAEGGEVEMEVIPMGVNDHEIGGTFQSPSALVVDETMLEKILGPPRFDDSEAADRVASAGVSVGLVWTTFGGEVQFVEATSMVGKGEMHLTGQLGDVIKESAQLALTWVRARASDFKLALAGDMNVLDGRDIHIHFPAGAVPKDGPSAGVTLVTALVSLFSQKRVRADTAMTGEMTLRGLVLPVGGIKDKILAAHRYGIKRVILPQRNSKDLVEVPAAVLSSLEVILAKRMEDVLENAFEGGCPWRNNYSKL
2.31 fold	UBP2, ubiquitin-specific protease 2 (protein, UniProt Q8W4N3 1-961, looked up) Ubiquitin carboxyl-terminal hydrolase 2: MGKKAKKKARAPTKEIQTMEISKKVSEEPPSQAGEIAEGDVKAVKETQACVHFDKALNLEKVLDKIKSSRQIKCAECNEGVYGKRGTKAKGSKGKKDFSSSDPKSNNKAIWLCLECGCYVCGGVGLPNGPQSHVLRHSRVTRHRLVIQWENPQLRWCFPCQLLLPVEKEDNGEKKDVLSEVVKLIKGRSLNNLASSDIEDQCSGSGSITSDIKLEGAVTSDIEARDGYVVRGLVNLGNTCFFNSIMQNLLSLDRLRDHFLKENGSGVGGPLASSLRKLFTETKPEAGLKSVINPRAFFGSFCSKAPQFRGYDQHDSHELLRCLLDSLSTEESALRKKRGVSDNDEKSTTLIESVFGGETSSIVSCMECGHSSKVYEPFLDLSLPVPFKKSPPKKPQPVSRAKKAKLPPKRVPKNVSKVSKVSKVLPGMVLSELNSSGKSMAVTADSDTSCSSLAPLDNGPVLETPSVLTLDNNQASESASQSDTGFDGSWLDFIGPETSGDETNLDMQEDGIDNVITAEVNQIVPSPNIVANSSVSSGDQTLEGNTERLMQDYEEIAKAEANLDEKDVQAMQSDECPATSGISAEFSQASCIGCDPGIGESSSSVNPWDEEELPLVVADSQILYMPYKEISCNDKSVEGECEASSSFVTGDHEPQNSDFVDFGGLFDEPETTEGPVFGPPSKAEASGVGFMAFSSESDPEEIDDSDLPVSVERCLGHFTKHEILSDDNAWNCENCSKNLKLQRLREKRKSNEDESRSSNTSNGWVKENEDEGFGETEILAVKQDPNDTSCVKDHSSDGRKAARIHSADESESKGTQDEDEDSEKVITVKRDATKKVLINKAPPVLTIHLKRFSQDLRGRLSKLNGHVAFKEVIDLRQYMDSRCSGEDPPVYRLAGLVEHSGTMRGGHYVAYVRGGQRVKETDSSSTAWYNVSDAYVRQVSLEKVLHSEAYILFYERIFSQE
5240 fold	NSP5, nitrile specifier protein 5 (protein, UniProt Q93XW5 1-326, looked up) Thiohydroximate-O-sulfate sulfur/sulfate-lyase (nitrile-forming) NSP5: MCPVENKWLKVGQKGAGPGARSSHAMTVVGNKVYCFGGELKPTIHIDNDLYVFDLETQEWSIAPATGEAPFPCFGVSMVTIGSTIYVYGGRDDKRRYNGLHSYDTETNEWKLLAPVEEGLPGRSYHSMAGDDRKVYVFGGVTAKGRVNTLHAYDVVDQKWVEYPAAGEACKGRGAPGLVVVEGRIWVLFGFDGNELGDIHCFDLASEQWKAVETTGDVPAARSVFPAVSYGKYIVIYGGEEEPHELMHMGAGKMSGEVYQLDTETLVWERIVCGNEEEKPSQRGWCAFTKAVKDGEEGLLVHGGNSPTNERLDDLVFWGFSHLNVN
2.99 fold	SINAT2, seven in absentia of Arabidopsis 2 (protein, UniProt Q9M2P4 1-308, looked up) E3 ubiquitin-protein ligase SINAT2: MAPGGSALKEVMESNSTGMDYEVKTAKVEVNNNKPTKPGSAGIGKYGIHSNNGVYELLECPVCTNLMYPPIHQCPNGHTLCSNCKLRVQNTCPTCRYELGNIRCLALEKVAESLEVPCRYQNLGCHDIFPYYSKLKHEQHCRFRPYTCPYAGSECSVTGDIPTLVVHLKDDHKVDMHDGCTFNHRYVKSNPHEVENATWMLTVFNCFGRQFCLHFEAFQLGMAPVYMAFLRFMGDENEAKKFSYSLEVGAHGRKLTWQGIPRSIRDSHRKVRDSQDGLIIPRNLALYFSGGDRQELKLRVTGRIWKEE
5.82 fold	SAE2, SUMO-activating enzyme 2 (protein, UniProt Q9SJT1 2-700, looked up) SUMO-activating enzyme subunit 2: ATQQQQSAIKGAKVLMVGAGGIGCELLKTLALSGFEDIHIIDMDTIEVSNLNRQFLFRRSHVGQSKAKVARDAVLRFRPNINIRSYHANVKNPEFDVDFFKQFDVVLNGLDNLDARRHVNRLCLAADVPLVESGTTGFLGQVTVHIKGKTECYECQTKPAPKTYPVCTITSTPTKFVHCIVWAKDLLFAKLFGDKNQDNDLNVRSNNSASSSKETEDVFERSEDEDIEQYGRKIYDHVFGSNIEAALSNEETWKNRRRPRPIYSKDVLPESLTQQNGSTQNCSVTDGDLMVSAMPSLGLKNPQELWGLTQNSLVFIEALKLFFAKRKKEIGHLTFDKDDQLAVEFVTAAANIRAESFGIPLHSLFEAKGIAGNIVHAVATTNAIIAGLIVIEAIKVLKKDVDKFRMTYCLEHPSKKLLLMPIEPYEPNPACYVCSETPLVLEINTRKSKLRDLVDKIVKTKLGMNLPLIMHGNSLLYEVGDDLDDIMVANYNANLEKYLSELPSPILNGSILTVEDLQQELSCKINVKHRFFSEILNPVLNSVWFLIILPSTFPKLFHFTESRNQDGLSLDIILGFSNVTIRRVLTMFETGRRLTHPLLILFCHREEFDEEKEPEGMVLSGWTPSPATNGESASTSNNENPVDVTESSSGSEPASKKRRLSETEASNHKKETENVESEDDDIMEVENPMMVSKKKIRVE
